Source: paper PMC11655644, “Cardiocutaneous syndrome is caused by aggregation of iASPP mutants” (Cell Death Discovery, 2024)

T1: iASPP CTD WT (C-terminal domain, AA625-828) (human, UniProt Q8WUF5 625-828)
T1 construct: iASPP (encoded by PPP1R13L), C-terminal domain with four ankyrin repeats and an SH3 domain, AA625-828 (CTD starting from L625); also called iASPP WT CTD; source: E. coli BL21(DE3) Rosetta, purified (IMAC, TEV cleavage, reverse Ni, HiTrap Q, Superdex 75 SEC); not shown: His10, N-terminal, cleaved
T1 sequence (looked up): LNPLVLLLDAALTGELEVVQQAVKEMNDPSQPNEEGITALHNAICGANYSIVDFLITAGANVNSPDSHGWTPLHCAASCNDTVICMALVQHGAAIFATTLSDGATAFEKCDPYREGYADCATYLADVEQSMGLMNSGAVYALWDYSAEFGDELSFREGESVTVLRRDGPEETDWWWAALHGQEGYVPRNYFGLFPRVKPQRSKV

B1: PP1α (AA311-330) peptide (peptide, UniProt P62136 311-330, looked up)
peptide: GLNPGGRPITPPRNSAKAKK
notes: PP1α (protein phosphatase 1 catalytic subunit alpha), peptide AA311-330; also called PP1α peptide

Key:
[1] = biological target: iASPP CTD WT (C-terminal domain, AA625-828) (human) (UniProt Q8WUF5); assay: ITC; VP-ITC, 12 °C, 25 steps of 10 µl; 450 µM iASPP CT peptides titrated to 30 µM purified ASPP CTDs; 25 mM HEPES pH 7.5, 150 mM NaCl, 500 µM TCEP
[2] = biological target: iASPP CTD N813A Y814A double mutant (human) (UniProt Q8WUF5); assay: as above
[3] = biological target: T1, iASPP CTD WT (C-terminal domain, …); assay: thermal shift assay; 20 µM CTD with SYPRO Orange and 20 or 40 µM PP1α (AA311-330) peptide in assay buffer; 4 to 99 °C at 0.1 °C/s; conditions: both partners purified

Row | Molecule | Kd [1] [nM] | Kd [2] [nM] | increase of the melting temperature with peptide [3] [°C]
1 | iASPP A620P peptide spanning the sequence around the mutation | 135 | 5000 | 
2 | iASPP WT peptide spanning the sequence around A620 | 743 | 5000 | 
3 | B1 |  |  | 10
